Results reported in PMC8446286.

Target: T1, GST-PIF4 (Arabidopsis thaliana, UniProt Q8W2F3 1-430)
T1 sequence: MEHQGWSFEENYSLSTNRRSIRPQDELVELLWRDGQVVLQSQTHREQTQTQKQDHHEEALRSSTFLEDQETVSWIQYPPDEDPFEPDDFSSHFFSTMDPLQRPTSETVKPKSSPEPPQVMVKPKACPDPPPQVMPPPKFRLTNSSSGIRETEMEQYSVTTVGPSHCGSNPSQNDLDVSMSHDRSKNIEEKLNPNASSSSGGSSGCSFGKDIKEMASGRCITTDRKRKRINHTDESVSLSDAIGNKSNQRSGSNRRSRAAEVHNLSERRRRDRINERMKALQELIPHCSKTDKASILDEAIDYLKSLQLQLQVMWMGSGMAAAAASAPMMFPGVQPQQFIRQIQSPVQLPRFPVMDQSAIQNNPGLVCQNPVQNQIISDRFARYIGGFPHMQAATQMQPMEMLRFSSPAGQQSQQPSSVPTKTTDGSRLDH
Assay: EMSA

B1: IAA29pro-p (dsDNA)
DNA 1: GATGTTGGATGTCTAAATTCGTTGAATCATGTGTCTCTTGACGAAATATGCATCTTCTTA
DNA 2: TAAGAAGATGCATATTTCGTCAAGAGACACATGATTCAACGAATTTAGACATCCAACATC
  binding result: no binding

B2: IAA29pro-G (dsDNA)
DNA 1: GAGTAGTCACGCACGCACGACTCCGTTCACGTGACATTCACGTTGATATTTCCCCCTCTA
DNA 2: TAGAGGGGGAAATATCAACGTGAATGTCACGTGAACGGAGTCGTGCGTGCGTGACTACTC
  binding result: binds

B3: NAC019pro-G34 (dsDNA)
DNA 1: TTGCGCCTAACTTCTACGATAGACACGTGGACACGTGTCGTCATGATGTAGTTTTGTCCG
DNA 2: CGGACAAAACTACATCATGACGACACGTGTCCACGTGTCTATCGTAGAAGTTAGGCGCAA
  binding result: binds

B4: NAC019pro-G1 (dsDNA)
DNA 1: ATCACGACGATCTAACTGACACACGTGTCAGAATTCAAAAGTGTTTATAGATAAACACAA
DNA 2: TTGTGTTTATCTATAAACACTTTTGAATTCTGACACGTGTGTCAGTTAGATCGTCGTGAT
  binding result: binds

B5: NAC019pro-G2 (dsDNA)
DNA 1: CATTTCAGAAAACCCGTCAACAAAAAACACGTGAAATAAAATATCTCTTCCTTTACCAGT
DNA 2: ACTGGTAAAGGAAGAGATATTTTATTTCACGTGTTTTTTGTTGACGGGTTTTCTGAAATG
  binding result: no binding
